Data set [1] addresses nucleosome (NCP) with fluorescein-labelled DNA, for fluorescence polarization (human). Kind of data set: fluorescence polarisation; increasing amounts of CHD4 PHD1/2, PHD1 or PHD2 added to 5 nM nucleosomes with fluorescein-labelled DNA; 15 mM Tris pH 7.5, 75 mM NaCl, 0.00625% Tween20, 3 mM DTT; apparent.
In a further data set the test system is LexA. Kind of data set: FRET (nucleosome unwrapping). To be noted: FP: 15 mM Tris pH 7.5, 75 mM NaCl, 0.00625% Tween20, 3 mM DTT, 5 nM NCP, FRET: 15 mM Tris pH 7.5, 1 mM EDTA, 0.00625% Tween20, 25 nM NCP, NMR: ….
Data set [2] relates to CHD4 PHD1/2. Kind of data set: FRET (nucleosome unwrapping). The following applies: 1.4 uM LexA present, FP: 15 mM Tris pH 7.5, 75 mM NaCl, 0.00625% Tween20, 3 mM DTT, 5 nM NCP, FRET: 15 mM Tris pH 7.5, 1 mM EDTA, 0.00625% Tween20, 25 nM NCP, NMR: ….
Data set [3] has as its system CHD4 PHD1/2. Kind of data set: fluorescence polarization. To be noted: 75 mM NaCl, apparent Kd, FP: 15 mM Tris pH 7.5, 75 mM NaCl, 0.00625% Tween20, 3 mM DTT, 5 nM NCP, FRET: 15 mM Tris pH 7.5, 1 mM EDTA, 0.00625% Tween20, 25 nM NCP, NMR: …. On the technique in general: Fluorescence polarisation rises when a labelled molecule tumbles more slowly, as on binding a larger partner.

pKd: −log10 of the molar value.

CHD4 PHD1/2 (aa 361–503), sequence (Q14839 361-503): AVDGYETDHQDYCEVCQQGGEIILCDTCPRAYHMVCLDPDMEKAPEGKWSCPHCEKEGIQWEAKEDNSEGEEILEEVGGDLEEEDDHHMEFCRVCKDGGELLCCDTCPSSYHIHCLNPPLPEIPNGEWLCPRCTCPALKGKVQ

As to “CHD4 PHD1/2 (aa 361–503) (from UniProt Q14839 361-503) (domain or fragment)”, the negative logarithm of the Kd (pKd) (usually the Kd on a negative log10 scale, so that one unit is a factor of ten) in data set [1] is 6.20.

For the substance Cy3-Cy5-NCP, 601 L with LexA site, the K half in the data set with LexA was determined as 1400 nM; in the data set with CHD4 PHD1/2 [2], 32 µM.

Consider Fluorescein-NCP, 601 L with LexA site, for which the pKd in the data set with CHD4 PHD1/2 [3] is 6.20.

(Values after paper PMC5686127, “Accessibility of the histone H3 tail in the nucleosome for binding of paired readers” (Nature Communications, 2017).)
